T1: IL-2Rα (CD25) on human activated CD8+ T cells (human, UniProt P01589 22-272)
T1 sequence (looked up): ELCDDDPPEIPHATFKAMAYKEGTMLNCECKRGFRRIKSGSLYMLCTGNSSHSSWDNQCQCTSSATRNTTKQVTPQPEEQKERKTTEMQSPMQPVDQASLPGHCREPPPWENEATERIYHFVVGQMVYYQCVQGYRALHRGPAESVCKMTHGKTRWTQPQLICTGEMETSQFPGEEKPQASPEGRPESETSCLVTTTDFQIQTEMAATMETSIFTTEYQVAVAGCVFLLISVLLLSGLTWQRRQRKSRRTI

T2: IL-2Rβ/γc complex (intermediate affinity receptor) on primary human CD8+ T cells (human, UniProt P14784 27-551; P31785 23-369)
T2 sequence (looked up) 1: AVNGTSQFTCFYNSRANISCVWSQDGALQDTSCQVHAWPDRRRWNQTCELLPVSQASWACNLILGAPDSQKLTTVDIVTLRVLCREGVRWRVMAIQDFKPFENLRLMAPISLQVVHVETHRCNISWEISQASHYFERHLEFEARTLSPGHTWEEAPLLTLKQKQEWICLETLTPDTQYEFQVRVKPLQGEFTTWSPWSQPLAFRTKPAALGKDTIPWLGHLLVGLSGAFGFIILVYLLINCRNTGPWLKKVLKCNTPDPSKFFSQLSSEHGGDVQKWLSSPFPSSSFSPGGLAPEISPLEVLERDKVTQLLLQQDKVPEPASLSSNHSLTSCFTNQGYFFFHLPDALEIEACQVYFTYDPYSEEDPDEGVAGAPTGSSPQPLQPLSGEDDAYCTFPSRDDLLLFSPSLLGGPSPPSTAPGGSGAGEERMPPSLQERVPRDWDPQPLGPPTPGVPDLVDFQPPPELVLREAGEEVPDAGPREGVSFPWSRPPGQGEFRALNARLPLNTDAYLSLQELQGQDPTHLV
T2 sequence (looked up) 2: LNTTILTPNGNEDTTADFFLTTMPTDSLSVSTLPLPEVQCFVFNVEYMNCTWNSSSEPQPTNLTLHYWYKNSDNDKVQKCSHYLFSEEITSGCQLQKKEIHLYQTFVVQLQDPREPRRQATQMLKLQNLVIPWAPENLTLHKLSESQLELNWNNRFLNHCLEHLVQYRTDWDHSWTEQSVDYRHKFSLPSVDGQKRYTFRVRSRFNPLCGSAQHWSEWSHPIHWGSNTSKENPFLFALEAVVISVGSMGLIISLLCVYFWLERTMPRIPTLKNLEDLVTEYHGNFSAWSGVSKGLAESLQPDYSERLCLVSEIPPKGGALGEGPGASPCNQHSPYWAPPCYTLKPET

T3: IL-2Rα/β/γc complex (high affinity receptor) on human activated CD8+ T cells (human, UniProt P01589 22-272; P14784 27-551; P31785 23-369)
T3 sequence (looked up) 1: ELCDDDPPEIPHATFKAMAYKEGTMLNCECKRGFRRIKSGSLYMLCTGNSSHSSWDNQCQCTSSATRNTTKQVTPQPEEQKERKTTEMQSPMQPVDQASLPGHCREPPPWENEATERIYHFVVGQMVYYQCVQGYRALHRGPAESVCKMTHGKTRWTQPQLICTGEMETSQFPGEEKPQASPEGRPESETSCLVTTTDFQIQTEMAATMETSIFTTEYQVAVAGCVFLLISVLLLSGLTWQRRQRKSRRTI
T3 sequence (looked up) 2: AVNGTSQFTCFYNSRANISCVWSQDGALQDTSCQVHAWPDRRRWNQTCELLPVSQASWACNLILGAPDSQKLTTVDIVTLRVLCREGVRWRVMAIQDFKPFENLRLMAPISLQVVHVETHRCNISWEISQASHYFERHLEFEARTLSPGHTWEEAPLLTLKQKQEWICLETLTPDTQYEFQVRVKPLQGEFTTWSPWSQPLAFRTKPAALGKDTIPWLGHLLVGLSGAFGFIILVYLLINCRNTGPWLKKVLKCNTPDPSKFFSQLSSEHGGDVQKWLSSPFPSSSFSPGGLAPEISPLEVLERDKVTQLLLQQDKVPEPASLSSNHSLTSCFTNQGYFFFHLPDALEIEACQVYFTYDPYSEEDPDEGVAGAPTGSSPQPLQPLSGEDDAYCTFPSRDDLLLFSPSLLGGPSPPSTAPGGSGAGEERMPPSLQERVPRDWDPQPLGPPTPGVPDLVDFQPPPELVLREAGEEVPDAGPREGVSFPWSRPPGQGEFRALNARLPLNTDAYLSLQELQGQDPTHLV
T3 sequence (looked up) 3: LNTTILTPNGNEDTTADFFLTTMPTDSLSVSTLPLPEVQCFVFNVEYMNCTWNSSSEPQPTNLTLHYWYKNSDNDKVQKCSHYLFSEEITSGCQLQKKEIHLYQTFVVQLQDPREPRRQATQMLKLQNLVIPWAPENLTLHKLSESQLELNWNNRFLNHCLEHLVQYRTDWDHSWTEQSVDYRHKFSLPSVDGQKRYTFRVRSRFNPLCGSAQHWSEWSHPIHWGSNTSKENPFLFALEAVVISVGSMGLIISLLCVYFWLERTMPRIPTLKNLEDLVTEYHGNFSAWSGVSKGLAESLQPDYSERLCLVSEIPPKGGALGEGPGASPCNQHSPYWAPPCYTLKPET


Tests used:
Assay in all cases: cell-based or functional assay
[1] = molecular target: PD-1 (on CHO-PD1 engineered cell line; on activated CD8+ T cells) (UniProt Q15116 25-288, limits assumed)
[2] = molecular target: T1, IL-2Rα (CD25) on human activated CD8+ T …
[3] = molecular target: T2, IL-2Rβ/γc complex (intermediate …)
[4] = molecular target: T3, IL-2Rα/β/γc complex (high affinity …)
[5] = molecular target: IL-2Rα/β/γc complex (high affinity receptor) on human activated CD8+ T cells (human) (UniProt P01589)
[6] = molecular target: T3, IL-2Rα/β/γc complex (high affinity …); remark: listed apart in the source

Binder | PD-1+/PD-1- ratio (pSTAT5 potency, activated versus primary CD8+ T) [1] | PD-1+/PD-1- ratio (pSTAT5 potency, activated versus primary CD8+ T) [2] | Potency reduction, pSTAT5, human primary CD8+ T [3] | pSTAT5 EC50, human primary CD8+ T [3] | Potency reduction, pSTAT5, human activated CD8+ T (CD25 positive and PD-1 positive) [4] | pSTAT5 EC50, human activated CD8+ T (CD25 positive and PD-1 positive) [4] | Potency reduction, pSTAT5, human activated CD8+ T [5] | pSTAT5 EC50, human activated CD8+ T [5] | Potency reduction, pSTAT5, human activated CD8+ T [6]
W3XX115-T2U3.E44-6.uIgG4V322 (Fc fusion) APTSSSTKKTQLQLEHLLLDLQMILNGINNYKNPKLTRMLTFKFYMPKKATELKHLQCLEEELKPLEEVLNLAQSKNFHLRPRDLISNINVIVLELKGSETTFMCEYADETATIVEFLNRWITFCQSIIESKYGPPCPPCPAPEAAGGPSVFLFPPKPKDTLMISRTPEVTCVVVDVSQEDPEVQFNWYVDGVEVHNAKTKPREEQFNSTYRVVSVLTVLHQDWLNGKEYKCKVSNKGLPSSIEKTISKAKGQPREPQVYTLPPCQEEMTKNQVSLWCLVKGFYPSDIAVEWESNGQPENNYKTTPPVLDSDGSFFLYSRLTVDKSRWQEGNVFSCSVMHEALHNHYTQKSLSLSLGK heavy: QVQLVQSGAEVKKPGSSVKVSCKASGFTFTTYYISWVRQAPGQGLEYLGYINMGSGGTNYNEKFKGRVTITADKSTSTAYMELSSLRSEDTAVYYCAIIGYFDYWGQGTMVTVSSASTKGPSVFPLAPCSRSTSESTAALGCLVKDYFPEPVTVSWNSGALTSGVHTFPAVLQSSGLYSLSSVVTVPSSSLGTKTYTCNVDHKPSNTKVDKRVESKYGPPCPPCPAPEAAGGPSVFLFPPKPKDTLMISRTPEVTCVVVDVSQEDPEVQFNWYVDGVEVHNAKTKPREEQFNSTYRVVSVLTVLHQDWLNGKEYKCKVSNKGLPSSIEKTISKAKGQPREPQVCTLPPSQEEMTKNQVSLSCAVKGFYPSDIAVEWESNGQPENNYKTTPPVLDSDGSFFLVSRLTVDKSRWQEGNVFSCSVMHEALHNHYTQKSLSLSLGK light: DVVMTQSPLSLPVTLGQPASISCRSSQSLLDSDGGTYLYWFQQRPGQSPRRLIYLVSTLGSGVPDRFSGSGSGTDFTLKISRVEAEDVGVYYCMQLTHWPYTFGQGTKLEIKRTVAAPSVFIFPPSDEQLKSGTASVVCLLNNFYPREAKVQWKVDNALQSGNSQESVTEQDSKDSTYSLSSTLTLSKADYEKHKVYACEVTHQGLSSPVTKSFNRGEC | 3470 fold | 3470 fold | 13.4 fold | 191 nM | 2 fold | 0.055 nM | – | – | –
W3XX115-T2U3.E44-26.uIgG4V322 (Fc fusion) APTSSSTKKTQLQLEHLLLDLQMILNGINNYKNPKLTRMLTFKFYMPKKATELKHLQCLEEELKPLEEVLNLAQSKNFHLRPRDLISNINVIVLELKGSETTFMCEYADETATIVEFLNRWITFCQSILESKYGPPCPPCPAPEAAGGPSVFLFPPKPKDTLMISRTPEVTCVVVDVSQEDPEVQFNWYVDGVEVHNAKTKPREEQFNSTYRVVSVLTVLHQDWLNGKEYKCKVSNKGLPSSIEKTISKAKGQPREPQVYTLPPCQEEMTKNQVSLWCLVKGFYPSDIAVEWESNGQPENNYKTTPPVLDSDGSFFLYSRLTVDKSRWQEGNVFSCSVMHEALHNHYTQKSLSLSLGK heavy: QVQLVQSGAEVKKPGSSVKVSCKASGFTFTTYYISWVRQAPGQGLEYLGYINMGSGGTNYNEKFKGRVTITADKSTSTAYMELSSLRSEDTAVYYCAIIGYFDYWGQGTMVTVSSASTKGPSVFPLAPCSRSTSESTAALGCLVKDYFPEPVTVSWNSGALTSGVHTFPAVLQSSGLYSLSSVVTVPSSSLGTKTYTCNVDHKPSNTKVDKRVESKYGPPCPPCPAPEAAGGPSVFLFPPKPKDTLMISRTPEVTCVVVDVSQEDPEVQFNWYVDGVEVHNAKTKPREEQFNSTYRVVSVLTVLHQDWLNGKEYKCKVSNKGLPSSIEKTISKAKGQPREPQVCTLPPSQEEMTKNQVSLSCAVKGFYPSDIAVEWESNGQPENNYKTTPPVLDSDGSFFLVSRLTVDKSRWQEGNVFSCSVMHEALHNHYTQKSLSLSLGK light: DVVMTQSPLSLPVTLGQPASISCRSSQSLLDSDGGTYLYWFQQRPGQSPRRLIYLVSTLGSGVPDRFSGSGSGTDFTLKISRVEAEDVGVYYCMQLTHWPYTFGQGTKLEIKRTVAAPSVFIFPPSDEQLKSGTASVVCLLNNFYPREAKVQWKVDNALQSGNSQESVTEQDSKDSTYSLSSTLTLSKADYEKHKVYACEVTHQGLSSPVTKSFNRGEC | 4200 fold | 4200 fold | 25.9 fold | 370 nM | 3.2 fold | 0.088 nM | – | – | –
W3XX115-BMK8 (Fc fusion, part only; not given: Fab heavy and light chains, part only) APTSSSTKKTQLQLEHLRLDLEMILNGINNYKNPKLTRMLTFKFYMPKKATELKHLQCLEEELKPLEEVLNLAQSKNFHLRPRDLISNINVIVLELKGSETTFMCEYADETATIVEFLNRWITFCKSIISTLTESKYGPPCPPCPAPEFLGGPSVFLFPPKPKDTLMISRTPEVTCVVVDVSQEDPEVQFNWYVDGVEVHNAKTKPREEQFNSTYRVVSVLTVLHQDWLNGKEYKCKVSNKGLPSSIEKTISKAKGQPREPQVYTLPPCQEEMTKNQVSLWCLVKGFYPSDIAVEWESNGQPENNYKTTPPVLDSDGSFFLYSRLTVDKSRWQEGNVFSCSVMHEALHNHYTQKSLSLSLG | – | – | – | – | – | – | 7.2 fold | 0.12 nM | –
W3XX115-T3U0.E44-1.uIgG4V322 (Fc fusion) APTSSSTKKTQLQLEHLLLDLQMILNGINNYKNPKLTRMLTVKFAMPKKATELKHLQCLEEELKPLEEVLNGAQSKNFHLRPRDLISNINVIVLELKGSETTFMCEYADETATIVEFLNRWITFCQSIISTLTESKYGPPCPPCPAPEAAGGPSVFLFPPKPKDTLMISRTPEVTCVVVDVSQEDPEVQFNWYVDGVEVHNAKTKPREEQFNSTYRVVSVLTVLHQDWLNGKEYKCKVSNKGLPSSIEKTISKAKGQPREPQVYTLPPCQEEMTKNQVSLWCLVKGFYPSDIAVEWESNGQPENNYKTTPPVLDSDGSFFLYSRLTVDKSRWQEGNVFSCSVMHEALHNHYTQKSLSLSLG heavy: EIQLQQSGPELVKPGASVKVSCKASGYSFTDYNMYWVKQSHGESLEWIGYIDPYNGGTRYNQKFKGKATLTVDKSSSTAFMHLNSLTSEDSAVYYCARNGHWDGAWFAYWGQGTLVTVSAASTKGPSVFPLAPCSRSTSESTAALGCLVKDYFPEPVTVSWNSGALTSGVHTFPAVLQSSGLYSLSSVVTVPSSSLGTKTYTCNVDHKPSNTKVDKRVESKYGPPCPPCPAPEAAGGPSVFLFPPKPKDTLMISRTPEVTCVVVDVSQEDPEVQFNWYVDGVEVHNAKTKPREEQFNSTYRVVSVLTVLHQDWLNGKEYKCKVSNKGLPSSIEKTISKAKGQPREPQVCTLPPSQEEMTKNQVSLSCAVKGFYPSDIAVEWESNGQPENNYKTTPPVLDSDGSFFLVSRLTVDKSRWQEGNVFSCSVMHEALHNHYTQKSLSLSLG light: DIQMNQSPSSLSASLGDTITITCHASQNINVWLSWYQQKPGNIPKLLIYKASNLHTGVPSRFSGSRSGTGFTLTISSLQPEDIATYYCHQGQSYPFTFGSGTKLEIKRTVAAPSVFIFPPSDEQLKSGTASVVCLLNNFYPREAKVQWKVDNALQSGNSQESVTEQDSKDSTYSLSSTLTLSKADYEKHKVYACEVTHQGLSSPVTKSFNRGEC | – | – | – | – | – | – | – | – | 12.4 fold

Source: patent US20260232769A1 (WUXI BIOLOGICS IRELAND, published 2026)
